Measured values from the supplement of paper PMC7877785.
± gives the uncertainty stated by the source.

Assay: self-splicing fitness, log relative to wild type (ln ratio); higher = more splicing; Tetrahymena group I intron in knt gene, E. coli kanamycin selection, DiMSum; sequences stand for … in CUCUCU…GGAGGGAAAAGUUAUCAGGCAUGCACCUGGUAGCUAGUCUUUAAACCAAUAGAUUGCAUCGGUUUAAAAGGCAAGACCGUCAAAUUGCGGGAAAGGGGUCAACAGCCGUUCAGUACCAAGUCUCAGGGGAAACUUUGAGAUGGCCUUGCAAAGGGUAUGGUAAUAAGCUGACGGACAUGGUCCUAACCACGCAGCCAAGUCCUAAGUCAACAGAUCUUCUGUUGAUAUGGAUGCAGUUCACAGACUAAAUGUCGGUCGGGGAAGAUGUAUUCUUCUCAUAAGAUAUAGUCGGACCUCUCCUUAAUGGGAGCUAGCGGAUGAAGUGAUGCAACACUGGAGCCGCUGGGAACUAAUUUGUAUGCGAAAGUAUAUUGAUUAGUUUUGGAGUACUCGUGGUCG
Procedure, shortened: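 A randomised library covering all eight P1ex-region intron nucleotides was built with the intron in the knt kanamycin-resistance gene on pET-22b(+) and held in E. coli BL21(DE3). Cells were grown overnight at 37°C or 30°C on LB agar, with or without 25 μg/mL kanamycin, plus 100 μg/mL carbenicillin, 50 μM IPTG and 0.2% rhamnose, and pooled colonies were amplicon-sequenced on an Illumina HiSeq 2500. DiMSum fitness is the error-weighted combination of wild-type-normalised replicate fold changes, kanamycin versus none.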

Sequence	self-splicing fitness (ln) (30 °C)	self-splicing fitness (ln) (37 °C)
UUGCAGCAAUAUUACGGGCA	-1.31 ± 0.13	-0.764 ± 0.14
UUGCAGCAAUAUUACGGGGG	-2.4 ± 0.17	-2.23 ± 0.24
UUGCAGCAAUAUUACGGGGU	-4.28 ± 0.2	-2.51 ± 0.18
UUGCAGCAAUAUUACGGUCG	-0.4 ± 0.089	0.21 ± 0.12
UUGCAGCAAUAUUACGGUUC	-4.6 ± 0.27	-1.67 ± 0.18
UUGCAGCAAUAUUACGUGCU	-3.19 ± 0.22	-1.84 ± 0.22
UUGCAGCAAUAUUACGUGUC	-3.3 ± 0.17	-3.15 ± 0.24
UUGGAGCAAUAUUACGAAUC	–	-2.58 ± 0.5
UUGGAGCAAUAUUACGAUCG	-2.53 ± 0.24	-1.66 ± 0.2
UUGGAGCAAUAUUACGCGUA	-3.77 ± 0.28	-2.13 ± 0.23
UUGGAGCAAUAUUACGCUGU	-3.36 ± 0.41	-2.35 ± 0.37
UUGGAGCAAUAUUACGGAAG	-3.3 ± 0.44	–
UUGGAGCAAUAUUACGGACU	-3.18 ± 0.34	-2.65 ± 0.35
UUGGAGCAAUAUUACGGUAU	-2.95 ± 0.26	-1.98 ± 0.28
UUGGAGCAAUAUUACGUACC	-3.52 ± 0.43	-2.01 ± 0.44
UUGGAGCAAUAUUACGUCCU	-2.05 ± 0.2	-0.535 ± 0.17
UUGGAGCAAUAUUACGUGGC	-3.14 ± 0.24	-0.804 ± 0.25
UUGGAGCAAUAUUACGUUAG	-3.62 ± 0.2	-1.49 ± 0.22
UUGGAGCAAUAUUACGUUUU	-1.64 ± 0.19	-2.55 ± 0.18
UUGUAGCAAUAUUACGACCU	-1.39 ± 0.15	-0.134 ± 0.16
UUGUAGCAAUAUUACGACUA	-0.429 ± 0.13	-0.0263 ± 0.16
UUGUAGCAAUAUUACGACUG	-0.0934 ± 0.12	-0.0721 ± 0.14
UUGUAGCAAUAUUACGAUAC	-1.91 ± 0.22	–
UUGUAGCAAUAUUACGCAUG	-1.86 ± 0.13	0.0958 ± 0.14
UUGUAGCAAUAUUACGCAUU	-2.84 ± 0.43	-2.26 ± 0.32

Sequence	self-splicing fitness (ln) (30 °C)	self-splicing fitness (ln) (37 °C)
UUGUAGCAAUAUUACGCCCG	-0.143 ± 0.22	-0.0661 ± 0.23
UUGUAGCAAUAUUACGCCCU	-0.23 ± 0.24	-0.0821 ± 0.2
UUGUAGCAAUAUUACGCGAC	–	-0.429 ± 0.37
UUGUAGCAAUAUUACGCGGA	-1.43 ± 0.13	-0.3 ± 0.11
UUGUAGCAAUAUUACGCUAA	-0.865 ± 0.17	-0.386 ± 0.19
UUGUAGCAAUAUUACGGAAU	-1.94 ± 0.15	-3.26 ± 0.32
UUGUAGCAAUAUUACGGAGU	–	-2.5 ± 0.36
UUGUAGCAAUAUUACGGAUG	-1.9 ± 0.12	-1.56 ± 0.15
UUGUAGCAAUAUUACGGCGC	–	-2.34 ± 0.2
UUGUAGCAAUAUUACGGCGG	-0.508 ± 0.11	-0.332 ± 0.14
UUGUAGCAAUAUUACGGCGU	-1.2 ± 0.1	-0.999 ± 0.12
UUGUAGCAAUAUUACGGGGU	-3.7 ± 0.46	-2.68 ± 0.27
UUGUAGCAAUAUUACGGGUA	-1.75 ± 0.094	-0.802 ± 0.099
UUGUAGCAAUAUUACGUACU	-0.641 ± 0.12	-0.216 ± 0.14
UUGUAGCAAUAUUACGUCCG	-1.24 ± 0.12	-0.388 ± 0.18
UUGUAGCAAUAUUACGUCCU	-1.48 ± 0.15	-0.583 ± 0.17
UUGUAGCAAUAUUACGUGCG	-1.77 ± 0.15	0.0928 ± 0.14
UUGUAGCAAUAUUACGUGGA	-2.15 ± 0.15	-0.844 ± 0.12
UUGUAGCAAUAUUACGUUAA	-1.71 ± 0.14	-2.31 ± 0.21
UUUAAGCAAUAUUACGACUU	-2.03 ± 0.12	-0.889 ± 0.12
UUUAAGCAAUAUUACGCAGC	-2.88 ± 0.22	-0.593 ± 0.2
UUUAAGCAAUAUUACGCCAA	-0.939 ± 0.14	0.281 ± 0.24
UUUAAGCAAUAUUACGCGAU	-3.34 ± 0.43	-2.32 ± 0.29
UUUAAGCAAUAUUACGGAUU	-2.78 ± 0.2	-1.07 ± 0.2
UUUAAGCAAUAUUACGGCGG	-0.0601 ± 0.13	-0.212 ± 0.18

Sequence	self-splicing fitness (ln) (30 °C)	self-splicing fitness (ln) (37 °C)
UUUAAGCAAUAUUACGGGAU	-3.4 ± 0.21	-1.95 ± 0.2
UUUAAGCAAUAUUACGGGGG	-2.49 ± 0.22	-2.04 ± 0.18
UUUAAGCAAUAUUACGGUCC	-2.33 ± 0.3	-1.25 ± 0.25
UUUAAGCAAUAUUACGGUGG	-0.86 ± 0.087	-0.646 ± 0.12
UUUAAGCAAUAUUACGGUUG	-2.33 ± 0.13	-1.76 ± 0.14
UUUAAGCAAUAUUACGGUUU	-2.53 ± 0.28	-1.51 ± 0.22
UUUAAGCAAUAUUACGUACC	-2.05 ± 0.39	–
UUUAAGCAAUAUUACGUCGU	-2.14 ± 0.21	-2.07 ± 0.32
UUUAAGCAAUAUUACGUCUC	-1.11 ± 0.29	-1.83 ± 0.39
UUUAAGCAAUAUUACGUUAG	-1.75 ± 0.13	-0.995 ± 0.14
UUUCAGCAAUAUUACGAACC	–	-1.08 ± 0.38
UUUCAGCAAUAUUACGAGUG	-0.489 ± 0.094	-0.205 ± 0.11
UUUCAGCAAUAUUACGAUGG	-2.15 ± 0.14	-0.745 ± 0.16
UUUCAGCAAUAUUACGCAUU	-1.93 ± 0.14	-1.08 ± 0.11
UUUCAGCAAUAUUACGCCCU	-0.619 ± 0.22	-0.611 ± 0.29
UUUCAGCAAUAUUACGCGCG	-0.107 ± 0.18	-1.01 ± 0.22
UUUCAGCAAUAUUACGCGUA	-0.663 ± 0.086	-0.289 ± 0.088
UUUCAGCAAUAUUACGCGUG	-1.02 ± 0.082	-0.508 ± 0.094
UUUCAGCAAUAUUACGCUAU	-2.73 ± 0.17	-1.81 ± 0.14
UUUCAGCAAUAUUACGCUGC	-2.48 ± 0.31	-1.14 ± 0.35
UUUCAGCAAUAUUACGCUUG	-1.3 ± 0.11	-0.507 ± 0.11
UUUCAGCAAUAUUACGGACC	-1.2 ± 0.4	–
UUUCAGCAAUAUUACGGAGG	-1.53 ± 0.17	-0.401 ± 0.18
UUUCAGCAAUAUUACGGCCU	-3.87 ± 0.47	-1.33 ± 0.25
UUUCAGCAAUAUUACGGGCA	-0.321 ± 0.076	-0.0917 ± 0.085

Sequence	self-splicing fitness (ln) (30 °C)	self-splicing fitness (ln) (37 °C)
UUUCAGCAAUAUUACGGUCA	0.101 ± 0.12	0.222 ± 0.13
UUUCAGCAAUAUUACGGUGG	-1.94 ± 0.067	-0.673 ± 0.075
UUUCAGCAAUAUUACGGUUC	-1.67 ± 0.17	-1.82 ± 0.27
UUUCAGCAAUAUUACGUGAU	-2.58 ± 0.13	-1.8 ± 0.18
UUUCAGCAAUAUUACGUGGA	-3.32 ± 0.22	-2.3 ± 0.35
UUUCAGCAAUAUUACGUUAU	-2.94 ± 0.2	-1.47 ± 0.14
UUUCAGCAAUAUUACGUUGC	-4.04 ± 0.29	-2.5 ± 0.24
UUUGAGCAAUAUUACGACAA	-1.26 ± 0.16	-0.94 ± 0.17
UUUGAGCAAUAUUACGACCU	-2.7 ± 0.26	-1.02 ± 0.34
UUUGAGCAAUAUUACGAGUG	-3.74 ± 0.18	-2.88 ± 0.2
UUUGAGCAAUAUUACGAUGC	–	-1.81 ± 0.4
UUUGAGCAAUAUUACGCAUC	-3.03 ± 0.28	-2.39 ± 0.38
UUUGAGCAAUAUUACGCCAG	-2.78 ± 0.36	-2.12 ± 0.47
UUUGAGCAAUAUUACGCGGA	-3.43 ± 0.35	-1.28 ± 0.17
UUUGAGCAAUAUUACGGAGA	–	1.09 ± 0.29
UUUGAGCAAUAUUACGGAGG	-3.18 ± 0.32	-2.33 ± 0.46
UUUGAGCAAUAUUACGGCGU	-3.7 ± 0.26	-1.9 ± 0.2
UUUGAGCAAUAUUACGGGAC	-3.43 ± 0.34	-2.12 ± 0.27
UUUGAGCAAUAUUACGGGGG	-1.96 ± 0.38	–
UUUGAGCAAUAUUACGGGUA	-2.8 ± 0.46	–
UUUGAGCAAUAUUACGGGUG	-4.1 ± 0.3	-2.22 ± 0.21
UUUGAGCAAUAUUACGUAGA	-1.7 ± 0.22	-0.802 ± 0.24
UUUGAGCAAUAUUACGUCCC	-2.9 ± 0.22	-2.15 ± 0.33
UUUGAGCAAUAUUACGUCUC	-3.52 ± 0.29	-2.7 ± 0.33
